# According to patent publication US20240091361A1, “T CELL RECEPTORS TARGETING RAS MUTATIONS AND USES THEREOF” (MEMORIAL SLOAN-KETTERING CANCER CENTER, priority 2021, published 2024):
# B1: TCR 5 (TCR, V domains shown)
# Valpha: GEDVEQSLFLSVREGDSSVINCTYTDSSSTYLYWYKQEPGAGLQLLTYIFSNMDMKQDQRLTVLLNKKDKHLSLRIADTQTGDSAIYFCAERDAGNNRKLIWGLGTSLAVNP
# Vbeta: GAGVSQSPRYKVAKRGQDVALRCDPISGHVSLFWYQQALGQGPEFLTYFQNEAQLDKSGLPSDRFFAERPEGSVSTLKIQRTQQEDSAVYLCASSLEGGDTQYFGPGTRLTVL
# Tests used:
# [1] = target: T1, KRAS wild type (10-mer) peptide on HLA-A*11:01 (human); assay: cytokine release
# T1 peptide: VVVGAGGVGK
# [2] = target: T2, GEM (also listed as SEQ ID NOs 82, 106, 130, 141) peptide on HLA-A*11:01 (human); assay: cytokine release
# T2 peptide: AVFGAGGVGK
# [3] = target: T3, TUTLA (also listed as SEQ ID NO 134) peptide on HLA-A*11:01 (human); assay: cytokine release
# T3 peptide: ISQGADGRGK
# [4] = target: T4, FRPD4 peptide on HLA-A*11:01 (human); assay: cytokine release
# T4 peptide: KSKLADGEGK
# [5] = target: T5, TAF6 peptide on HLA-A*11:01 (human); assay: cytokine release
# T5 peptide: GATTADGKGK
# [6] = target: T6, DCAF7 peptide on HLA-A*11:01 (human); assay: cytokine release
# T6 peptide: ASVGADGSVR
# [7] = target: T7, ELP2 peptide on HLA-A*11:01 (human); assay: cytokine release
# T7 peptide: VSAAADSAVR
# [8] = target: T8, FRPD1 peptide on HLA-A*11:01 (human); assay: cytokine release
# T8 peptide: KVAAADGPAR
# [9] = target: T9, INO80 peptide on HLA-A*11:01 (human); assay: cytokine release
# T9 peptide: SSLAPDSLVR
# [10] = target: T10, KI26A peptide on HLA-A*11:01 (human); assay: cytokine release
# T10 peptide: PVAGPDGLSK
# [11] = target: T11, PRP4 peptide on HLA-A*11:01 (human); assay: cytokine release
# T11 peptide: ASCAADGSVK
# [12] = target: T12, KRAS G12D (10-mer; the same sequence in NRAS G12D and HRAS G12D) peptide on HLA-A*11:01 (human); assay: multimer staining
# T12 peptide: VVVGADGVGK
binder,measurement,setting,value
B1,binding result,[1],no recognition
same,binding result,[2],no recognition
same,binding result,[3],no recognition
same,binding result,[4],no recognition
same,binding result,[5],no recognition
same,binding result,[6],no recognition
same,binding result,[7],no recognition
same,binding result,[8],no recognition
same,binding result,[9],no recognition
same,binding result,[10],no recognition
same,binding result,[11],no recognition
same,binding result,[12],recognises
